B1: ANAM-2Sβ (structured_RNA)
RNA: GGGAGCGGCCGAUCUAUGGACGCUAUAGGCACACCGGAUACUUUAACGAUUGGCCGCCUGCUGCGGGCCGAUCUAUGGACGCUAUAGGCACACCGGAUACUUUAACGAUUGGCCCGCAGCAGUUCCC
B2: ANAM-β (structured_RNA)
RNA: AGGCCGAUCUAUGGACGCUAUAGGCACACCGGAUACUUUAACGAUUGGCU

Legend:
β-catenin [1] = molecular target: T1, β-catenin (UniProt P35222 1-781); experiment: SPR; stronger than ANAM-β; KD shown only in figure; SPR Biacore X100, CM5 chip, protein immobilized by amine coupling; RNA injected 1.5 min at 5 μL/min, six concentrations 4.1 nM-1 μM; running buffer, pH and temperature not stated
T1 sequence (P35222 whole entry): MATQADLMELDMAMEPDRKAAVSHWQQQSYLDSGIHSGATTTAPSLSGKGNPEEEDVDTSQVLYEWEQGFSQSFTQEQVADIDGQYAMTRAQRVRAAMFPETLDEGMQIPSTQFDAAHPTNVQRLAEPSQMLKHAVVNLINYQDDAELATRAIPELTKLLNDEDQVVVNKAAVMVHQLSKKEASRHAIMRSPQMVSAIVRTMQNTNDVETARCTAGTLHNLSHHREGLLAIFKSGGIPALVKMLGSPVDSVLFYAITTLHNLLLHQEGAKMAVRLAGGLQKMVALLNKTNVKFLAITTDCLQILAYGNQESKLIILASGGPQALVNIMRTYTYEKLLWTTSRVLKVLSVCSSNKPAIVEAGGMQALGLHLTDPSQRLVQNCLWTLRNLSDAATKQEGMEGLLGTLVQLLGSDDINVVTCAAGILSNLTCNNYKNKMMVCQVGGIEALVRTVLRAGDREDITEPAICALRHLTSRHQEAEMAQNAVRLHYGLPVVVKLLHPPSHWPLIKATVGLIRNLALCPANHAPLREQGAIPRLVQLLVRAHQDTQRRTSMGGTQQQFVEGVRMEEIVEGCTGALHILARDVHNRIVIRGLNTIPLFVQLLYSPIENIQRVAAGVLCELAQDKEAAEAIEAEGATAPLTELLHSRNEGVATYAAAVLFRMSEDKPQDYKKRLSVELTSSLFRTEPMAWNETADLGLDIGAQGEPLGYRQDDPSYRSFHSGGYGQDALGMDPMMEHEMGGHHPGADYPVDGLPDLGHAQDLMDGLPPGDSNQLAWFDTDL

β-catenin [2] = molecular target: T1, β-catenin; experiment: SPR; KD shown only in figure; SPR Biacore X100, CM5 chip, protein immobilized by amine coupling; RNA injected 1.5 min at 5 μL/min, six concentrations 4.1 nM-1 μM; running buffer, pH and temperature not stated

| Binder | binding result (β-catenin [1]) | binding result (β-catenin [2]) |
| --- | --- | --- |
| B1 | binds |  |
| B2 |  | binds |

From PMC7533053, “Improving transgene expression and CRISPR‐Cas9 efficiency with molecular engineering‐based molecules”
